B1: Tumor necrosis factor receptor superfamily member 11B (Mus musculus), O08712 (parent)
chain: MNKWLCCALLVLLDIIEWTTQETLPPKYLHYDPETGHQLLCDKCAPGTYLKQHCTVRRKTLCVPCPDHSYTDSWHTSDECVYCSPVCKELQSVKQECNRTHNRVCECEEGRYLEIEFCLKHRSCPPGSGVVQAGTPERNTVCKKCPDGFFSGETSSKAPCIKHTNCSTFGLLLIQKGNATHDNVCSGNREATQKCGIDVTLCEEAFFRFAVPTKIIPNWLSVLVDSLPGTKVNAESVERIKRRHSSQEQTFQLLKLWKHQNRDQEMVKKIIQDIDLCESSVQRHLGHSNLTTEQLLALMESLPGKKISPEEIERTRKTCKSSEQLLKLLSLWRIKNGDQDTLKGLMYALKHLKTSHFPKTVTHSLRKTMRFLHSFTMYRLYQKLFLEMIGNQVQSVKISCL

Variants of: B1
Settings: with Tnfsf11, O35235-1
Chain of Tnfsf11, O35235-1 (O35235 whole entry): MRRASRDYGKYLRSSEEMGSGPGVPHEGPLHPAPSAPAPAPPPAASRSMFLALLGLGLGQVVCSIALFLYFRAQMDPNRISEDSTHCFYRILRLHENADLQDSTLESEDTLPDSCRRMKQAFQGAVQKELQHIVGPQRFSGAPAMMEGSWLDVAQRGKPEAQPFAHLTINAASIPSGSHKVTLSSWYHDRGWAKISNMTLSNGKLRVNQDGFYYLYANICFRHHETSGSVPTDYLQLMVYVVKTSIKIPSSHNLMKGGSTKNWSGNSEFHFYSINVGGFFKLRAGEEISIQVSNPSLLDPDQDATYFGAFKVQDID

| Variant | effect of a mutation on the interaction |
| --- | --- |
| F117A | increasing interaction strength |

Variants of: B1
Settings: with Tnfsf11, O35235-1
Remark: another data set of the same source

| Variant | effect of a mutation on the interaction |
| --- | --- |
| F117L | increasing interaction strength |
